The term EC50 denotes the concentration giving half of the maximal effect. Lower therefore signals greater potency.

Numbering of substitutions follows the chain as printed.

First the molecules themselves.
T1: human SLC34A2 (human, UniProt O95436 1-690)
T1 construct: whole, on cells; also called human solute carrier 34 A2; NaPi2b
T1 sequence (looked up): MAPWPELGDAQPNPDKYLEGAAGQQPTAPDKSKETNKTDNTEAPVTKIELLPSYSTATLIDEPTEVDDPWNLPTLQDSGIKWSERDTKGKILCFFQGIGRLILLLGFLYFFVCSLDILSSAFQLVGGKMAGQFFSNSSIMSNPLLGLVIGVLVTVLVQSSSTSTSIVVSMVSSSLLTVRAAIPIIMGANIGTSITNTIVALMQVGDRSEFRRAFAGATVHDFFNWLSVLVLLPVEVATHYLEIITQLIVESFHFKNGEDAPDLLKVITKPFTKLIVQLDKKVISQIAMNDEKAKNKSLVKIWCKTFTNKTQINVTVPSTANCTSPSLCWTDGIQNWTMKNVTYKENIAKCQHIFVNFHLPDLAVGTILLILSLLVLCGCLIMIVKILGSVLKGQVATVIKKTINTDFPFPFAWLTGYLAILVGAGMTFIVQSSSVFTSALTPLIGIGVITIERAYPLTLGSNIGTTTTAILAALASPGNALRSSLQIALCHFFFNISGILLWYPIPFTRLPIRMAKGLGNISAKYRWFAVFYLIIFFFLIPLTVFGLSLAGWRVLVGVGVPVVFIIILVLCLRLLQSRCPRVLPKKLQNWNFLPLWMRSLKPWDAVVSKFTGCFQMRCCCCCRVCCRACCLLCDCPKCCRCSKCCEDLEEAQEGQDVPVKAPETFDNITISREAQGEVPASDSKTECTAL

B1: xi20H2F1 hIgG1 (antibody, V domains shown)
VH: EVKLVESGGNLVKPGGSLKLSCAASGFTFSSYAMSWVRQTPEKRLEWVASISNGGTTYYPDSVKGRFTISRDVARNILYLQMTSLRSEDTAMYYCARTHYRDFVYWGQGTLVTVSA
VL: EIVLTQAAFSNPVTLGTSASISCRSSKSLLHSNGITYLYWYLQKPGQSPQLLIYQMSNLASGVPDRFSCSGSGTDFTLRISRVEAEDVGVYYCAQNLEFPWTFGGGTKLEIK
notes: chimeric, hIgG1
B2: xi7G10E11 hIgG1 (antibody, V domains shown)
VH: DVKLVESGGGLIKLGGSLKLSCAASGFTFSGYYMSWFRQTPEKRLELVAVINSNGGSTYYAVTVKGRFTISRDNAKNTLYLQMSSLKSEDTALYYCARHEGSQAWFAHWGQGTLVTVSA
VL: DIVMTQSHKFMSTSVGDRVSITCKASQDVTTAVAWYQQKPGQSPKLLIYWASTRHTGVPDRFTGSGSGTDYTLTISSVQAEDLALYYCQQHHSTPLTFGAGTKLELK
notes: chimeric, hIgG1
B3: xi25B11B9 hIgG1 (antibody, V domains shown)
VH: DVKLVESGGGLVRLGGSLKLSCAASGFTFSSHYMSWVRQTPKKRLELVATINSSGGNTYYPDTVKGRFTISRDNARNTLFLQMTSLKSEDTALYYCARQPINTVAYFDYWGQGTTLTVSS
VL: B2 VL with K9E, D17A, V29L, T56I, T69A, H91Y
notes: chimeric, hIgG1
B4: xi67C9G11 hIgG1 (antibody, V domains shown)
VH: DVKLVESGGGLVKLGGSLKLSCAASGFTFSSYFMSWIRQTPEKRVDLVAVINSNGGSTYSPDTVKGRFTISRDNAKNTLYLQMTSLKSEDTALYYCARHFYSYDGAWFPYWGQGTLVTVSA
VL: B2 VL with S14L, T30S, A32S, Y71F, L96I, A100V
notes: chimeric, hIgG1
B5: xi62C10B3D2 hIgG1 (antibody, V domains shown)
VH: QVHQQQSGPELVKPGASVRISCKASGYTFTSYYIHWVKQRPGQGLEWIGCIYPGNLFTKYNEKFKDKATLTADTSSTTAYMHLSSLTSEDSAVYFCARFLNWNAWYFDVWGAGTTVSVSS
VL: DVLMTQTPLSLPVSLGDQASISCRSSQSIEHSNGNTNLEWYLQKPGQSPRLLIYKVSNRFSGVPDRFSGSGSGTDFTLKITGVEAEDLGVYYCFQGSHFPWTFGGGTKLEIK
notes: chimeric, hIgG1
B6: xi11F6H8 hIgG1 (antibody, V domains shown)
VH: EVQLQQSGPELVKPGASVKISCKTSGFTFTEYTMHWVKQSHGKSLEWIGGINPNNGISSYNQNFKGKATLTVDKSSSTAYMELRSLTSEDSTVYYCARCRYYDTSYYDMDYWGQGTSVTVSS
VL: DIQMTQTTSSLSASLGDRVTISCRASQDIRNFLNWYQQKPDGTVKLLIYYTSRLHSGVPSRFSGSGSGTDYSLTISNLEEEDIATYFCQQSNTLPWTFGGGTKLEIK
notes: chimeric, hIgG1
B7: 30H9B8F9.p1.z8 hIgG1 (antibody, V domains shown)
VH: QVQLVQSGAEVKKPGASVKVSCKTSGYTFTTNNMHWVRQAPGQGLEWIGAIYPGSGATAYNQKFKGRVTMTADTSTSTVYMELSSLRSEDTAVYYCARGMYGHGAMDYWGQGTLVTVSS
VL: DIVMTQSPSFLSASVGDRVTITCKASQDVGTAVAWYQQKPGKSPKLLIYWATTRHSGVPDRFTGSGSGTDFIFTISSVQPEDFATYFCQQYSSNPLTFGAGTKLEIK
notes: humanized hIgG1
B8: 30H9B8F9.p1.z15 hIgG1 (antibody, V domains shown)
VH: B7 VH with K12V, V20M, R38K, V68A, M70L, T74K, V79A, D90A, L114S
VL: B7 VL with V3Q, T63S, D70E
notes: humanized hIgG1
B9: 30H9B8F9.p1.z16 hIgG1 (antibody, V domains shown)
VH: B7 VH with K12V, V20M, R38K, V68A, M70L, T74K, V79A, D90A, L114S
VL: B7 VL
notes: humanized hIgG1
B10: 30H9B8F9.p1.z12 hIgG1 (antibody, V domains shown)
VH: B7 VH with K12V, M70L, T74K, V79A, D90A
VL: B7 VL
notes: humanized hIgG1
B11: 30H9B8F9.p1.z14 hIgG1 (antibody, V domains shown)
VH: B7 VH with K12V, V20M, R38K, V68A, M70L, T74K, V79A, D90A, L114S
VL: B7 VL with V3Q, M4L, T63S, D70E, I72T, V78L, A100Q
notes: humanized hIgG1
B12: 30H9B8F9.p1.z11 hIgG1 (antibody, V domains shown)
VH: B7 VH with K12V, M70L, T74K, V79A, D90A
VL: B7 VL with V3Q, T63S, D70E
notes: humanized hIgG1
B13: 30H9B8F9.p1.z10 hIgG1 (antibody, V domains shown)
VH: B7 VH with K12V, M70L, T74K, V79A, D90A
VL: B7 VL with V3Q, M4L, T63S, D70E, I72T, V78L, A100Q
notes: humanized hIgG1
B14: xi95H11A1D8VH-1 hIgG1 (antibody, V domains shown)
VH: QVQLQQPGAELVKPGASVKMSCKTSGYTFTTNNMHWVKQTPGQGLEWIGAIYPGNGATAYNQKFKGKATLTADKSSSTAYMQLSSLTSEASAVYYCARGMYGHGAMDYWGQGTSVIVSS
VL: DIVLTQSPATLSVTPGDSVSLSCRARQNIGNNLYWYQQKSNESPRLLIKYASQSISGIPSRFSGSGSGTDFTLTINSVETEDFGVYFCQQSFSWPLTFGAGTKLELK
notes: chimeric, hIgG1; the suffix VH-1 is not explained
B15: 63A11D5B4.p1.z6 hIgG1 (antibody, V domains shown)
VH: QVQLVQSGAEVKKPGASVKVSCKTSGYTFITYNMHWVRQAPGQGLEWIGAIYPGSGDTSYNQKFKGRVTMTADTSTSTVYMELSSLRSEDTAVYYCSISTIITTGAVDYWGQGTLVTVSS
VL: DIQMTQSPSSLSTSVGDRVTITCKASQDVGTAVAWYQQKPGKSPKLLIYWTSTRHTGVPSRFSGSGSGTDFTLIISSLQPEDVATYYCQQYSRIPLTFGGGTKVEIK
notes: humanized hIgG1
B16: 63A11D5B4.p1.z1 hIgG1 (antibody, V domains shown)
VH: B15 VH with T24A, I48M, A72R, S97A, I98S
VL: B15 VL with T13A, S43V, I74T
notes: humanized hIgG1
B17: 63A11D5B4.p1.z3 hIgG1 (antibody, V domains shown)
VH: B15 VH with T24A, I48M, A72R, S97A, I98S
VL: B15 VL with K42Q, S60D, S76R, Y87F
notes: humanized hIgG1
B18: 63A11D5B4.p1.z2 hIgG1 (antibody, V domains shown)
VH: B15 VH with T24A, I48M, A72R, S97A, I98S
VL: B15 VL
notes: humanized hIgG1

The first assay addresses T1, human SLC34A2. Description: FACS, OVCAR3 cells. The procedure:
In this example, cell based binding of chimeric antibodies (hIgG1) prepared from the murine antibodies on human SLC34A2 expressing cells were assessed using flow cytometry.
(§1) Briefly, OVCAR3 cells or HEK293 cells expressing human SLC34A2 were incubated with chimeric antibodies (from 200 nM, 4 folds dilution, 8 points). After incubation at 4° C. for 60 minutes, the cells were washed with FACS buffer twice, then stained with fluorescent conjugated secondary antibody at 4° C. for 30 minutes. After that the cells were washed twice and analyzed by flow cytometry.
(Flow cytometry measures light scatter and fluorescence of single cells or particles in a stream.)
As to B1, the EC50 was 2.73 nM and the “Top (MFI)” value turned out to be 26500 MFI.

Take B2: the response was half-maximal at 1.68 nM (EC50) and the “Top (MFI)” value was determined as 39600 MFI.

For B3, it took 9.06 nM to reach a half-maximal effect (EC50) and the “Top (MFI)” value came to 42500 MFI.

As for B4, a half-maximal response (EC50) required 4.67 nM and the “Top (MFI)” value was determined as 41000 MFI.

With B5, the 50% effective concentration (EC50) is 408 nM and the “Top (MFI)” value stood at 29500 MFI.

Regarding B6, the EC50 came out at 4.9 nM and the “Top (MFI)” value is 41300 MFI.

The target in the next assay is T1, human SLC34A2. Description: FACS, OVCAR3 cells. This is another data set of the same source. On the procedure: The binding of these humanized antibodies to OVCAR3 cells was evaluated as described above, and the results are shown in FIG. 12A-D and Tables 16A-D.
With B7, the EC50 was 1.9 nM and the “Top (MFI)” value is 26200 MFI.

Turning to B8, the EC50 turned out to be 1.05 nM and the “Top (MFI)” value amounted to 26500 MFI.

For B9, the EC50 was found to be 1.41 nM and the “Top (MFI)” value was found to be 26500 MFI.

With B10, the EC50 was 1.4 nM and the “Top (MFI)” value came to 27600 MFI.

For B11, the EC50 turned out to be 1.31 nM and the “Top (MFI)” value turned out to be 27300 MFI.

Regarding B12, the midpoint of the response, the EC50, lay at 1.43 nM and the “Top (MFI)” value was found to be 27000 MFI.

As for B13, the EC50 was determined as 1.93 nM and the “Top (MFI)” value was determined as 30700 MFI.

A further assay has as its target T1, human SLC34A2. Briefly: FACS, HEK293/human SLC34A2 cells. On the procedure: as §1
On to B1, for which the concentration giving a half-maximal response (EC50) came to 1.31 nM and the “Top (MFI)” value came to 42000 MFI.

Regarding B14, the EC50 was found to be 63.4 nM and the “Top (MFI)” value amounted to 12700 MFI.

B2: the 50% effective concentration (EC50) was found to be 1.72 nM and the “Top (MFI)” value came out at 109000 MFI.

With B3, the midpoint of the response, the EC50, lay at 2.51 nM and the “Top (MFI)” value was determined as 106000 MFI.

Regarding B4, a half-maximal response (EC50) required 2.82 nM and the “Top (MFI)” value amounted to 107000 MFI.

Take B5: the EC50 turned out to be 378 nM and the “Top (MFI)” value was determined as 128000 MFI.

In the case of B6, a half-maximal effect (EC50) was put at 1.92 nM and the “Top (MFI)” value came to 111000 MFI.

The next assay deals with T1, human SLC34A2. Briefly: FACS, OVCAR3 cells. This is another data set of the same source.
Turning to B15, a half-maximal response (EC50) required 36.8 nM and the “Top (MFI)” value came out at 34600 MFI.

B16: the midpoint of the response, the EC50, lay at 19.6 nM and the “Top (MFI)” value was 28000 MFI.

As to B17, the response was half-maximal at 17.9 nM (EC50) and the “Top (MFI)” value amounted to 28600 MFI.

Regarding B18, the 50% effective concentration (EC50) was determined as 20.6 nM and the “Top (MFI)” value was found to be 28700 MFI.

Source of the values: US20240301052A1 (LANOVA MEDICINES DEVELOPMENT, published 2024).
